Results taken from patent US20040038876A1 (published 2004).
Each block holds one binder with its values, some of them ahead of it.

Molecular target: T1, Shh receptor molecules on C3H10T1/2 cells (UniProt Q61115 1-1434)
T1 sequence (looked up): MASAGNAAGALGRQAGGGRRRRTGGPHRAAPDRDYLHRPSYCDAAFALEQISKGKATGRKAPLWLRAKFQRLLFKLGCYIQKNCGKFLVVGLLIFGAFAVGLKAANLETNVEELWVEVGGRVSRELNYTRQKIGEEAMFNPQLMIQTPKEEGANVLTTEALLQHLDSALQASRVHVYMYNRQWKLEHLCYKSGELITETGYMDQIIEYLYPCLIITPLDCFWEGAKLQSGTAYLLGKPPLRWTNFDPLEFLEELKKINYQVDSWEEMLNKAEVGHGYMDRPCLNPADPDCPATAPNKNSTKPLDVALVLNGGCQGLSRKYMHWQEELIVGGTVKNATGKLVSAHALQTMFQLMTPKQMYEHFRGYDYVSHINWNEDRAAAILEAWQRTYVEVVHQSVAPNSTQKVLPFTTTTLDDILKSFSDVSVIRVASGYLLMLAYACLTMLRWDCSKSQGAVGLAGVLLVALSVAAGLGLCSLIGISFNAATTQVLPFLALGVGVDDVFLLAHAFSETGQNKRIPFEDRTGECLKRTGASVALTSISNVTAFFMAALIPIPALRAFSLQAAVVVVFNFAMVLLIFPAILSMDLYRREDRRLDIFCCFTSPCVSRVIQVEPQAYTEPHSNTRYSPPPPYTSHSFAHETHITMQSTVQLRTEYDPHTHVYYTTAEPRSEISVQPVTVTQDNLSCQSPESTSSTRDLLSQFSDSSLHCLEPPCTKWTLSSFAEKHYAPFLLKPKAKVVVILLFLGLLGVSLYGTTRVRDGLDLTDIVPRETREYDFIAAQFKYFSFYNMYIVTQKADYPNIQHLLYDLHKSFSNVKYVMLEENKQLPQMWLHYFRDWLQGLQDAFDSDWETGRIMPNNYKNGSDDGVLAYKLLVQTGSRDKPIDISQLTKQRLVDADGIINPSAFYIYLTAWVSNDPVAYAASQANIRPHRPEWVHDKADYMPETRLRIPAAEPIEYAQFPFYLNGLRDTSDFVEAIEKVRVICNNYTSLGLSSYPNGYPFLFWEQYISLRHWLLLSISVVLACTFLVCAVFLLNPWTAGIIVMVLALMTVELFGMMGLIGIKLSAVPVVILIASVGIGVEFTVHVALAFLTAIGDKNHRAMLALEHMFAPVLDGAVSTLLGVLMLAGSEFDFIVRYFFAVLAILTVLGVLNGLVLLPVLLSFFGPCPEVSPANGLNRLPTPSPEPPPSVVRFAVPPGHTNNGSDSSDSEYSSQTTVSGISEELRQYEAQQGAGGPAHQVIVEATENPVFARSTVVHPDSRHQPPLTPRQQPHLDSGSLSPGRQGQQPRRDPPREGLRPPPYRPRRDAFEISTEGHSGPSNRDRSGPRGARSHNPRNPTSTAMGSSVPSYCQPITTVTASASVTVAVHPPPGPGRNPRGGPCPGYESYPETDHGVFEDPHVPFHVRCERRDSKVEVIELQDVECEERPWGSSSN
Assay: cell-based or functional assay

Potency (IC50) in C3H10T1/2 assay (alkaline phosphatase induction): 0.2 µg/mL
B1: mutant 20 (Shh C1II/A169C + N68C), HPE-modified (ligand)
chain: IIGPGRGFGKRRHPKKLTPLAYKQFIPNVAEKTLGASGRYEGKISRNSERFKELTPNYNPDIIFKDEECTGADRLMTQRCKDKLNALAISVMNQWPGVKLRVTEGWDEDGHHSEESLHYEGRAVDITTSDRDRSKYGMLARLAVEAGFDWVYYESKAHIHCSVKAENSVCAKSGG
modifications: beta-(4-hydroxyphenyl) ethylmaleimide on thiol of Cys68, Cys169

Potency (IC50) in C3H10T1/2 assay (alkaline phosphatase induction): 0.4 µg/mL
B2: mutant 18 (Shh C1II/A169C + N46C), unmodified (ligand)
chain: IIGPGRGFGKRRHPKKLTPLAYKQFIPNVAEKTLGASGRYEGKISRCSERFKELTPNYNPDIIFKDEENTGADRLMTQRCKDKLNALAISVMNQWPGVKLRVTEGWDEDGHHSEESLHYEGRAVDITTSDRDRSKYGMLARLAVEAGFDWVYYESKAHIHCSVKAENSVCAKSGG

Potency (IC50) in C3H10T1/2 assay (alkaline phosphatase induction): 4 µg/mL
B3: mutant 17 (Shh C1II/A169C + N27C), 5 K PEG (ligand)
chain: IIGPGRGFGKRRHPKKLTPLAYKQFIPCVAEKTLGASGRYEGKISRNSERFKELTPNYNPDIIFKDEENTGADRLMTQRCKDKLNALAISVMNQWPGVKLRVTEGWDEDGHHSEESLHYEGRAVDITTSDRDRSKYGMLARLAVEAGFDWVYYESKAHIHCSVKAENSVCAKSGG
modifications: 5 K PEG maleimide on thiol of Cys27, Cys169

Potency (IC50) in C3H10T1/2 assay (alkaline phosphatase induction): 8 µg/mL
B4: mutant 17 (Shh C1II/A169C + N27C), 20 K PEG (ligand)
chain: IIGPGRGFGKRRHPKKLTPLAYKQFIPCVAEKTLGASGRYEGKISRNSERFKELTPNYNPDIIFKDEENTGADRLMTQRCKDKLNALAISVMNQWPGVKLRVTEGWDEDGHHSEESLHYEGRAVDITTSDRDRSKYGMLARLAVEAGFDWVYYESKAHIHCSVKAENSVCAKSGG
modifications: 20 K PEG maleimide on thiol of Cys27, Cys169

Potency (IC50) in C3H10T1/2 assay (alkaline phosphatase induction): 0.3 µg/mL
B5: mutant 18 (Shh C1II/A169C + N46C), 5 K PEG (ligand)
chain: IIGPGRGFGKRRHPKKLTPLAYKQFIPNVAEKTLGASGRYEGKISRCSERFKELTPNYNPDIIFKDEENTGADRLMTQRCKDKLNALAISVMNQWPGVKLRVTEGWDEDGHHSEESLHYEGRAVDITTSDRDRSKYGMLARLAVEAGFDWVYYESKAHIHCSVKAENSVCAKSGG
modifications: 5 K PEG maleimide on thiol of Cys46, Cys169

Potency (IC50) in C3H10T1/2 assay (alkaline phosphatase induction): 1.5 µg/mL
B6: mutant 17 (Shh C1II/A169C + N27C), Napth-modified (ligand)
chain: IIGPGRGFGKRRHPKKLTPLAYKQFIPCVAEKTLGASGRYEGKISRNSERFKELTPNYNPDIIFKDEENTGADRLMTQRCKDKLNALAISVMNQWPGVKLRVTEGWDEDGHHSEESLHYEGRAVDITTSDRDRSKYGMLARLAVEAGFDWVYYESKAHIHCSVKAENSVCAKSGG
modifications: N-(1-naphthyl) maleimide on thiol of Cys27, Cys169

Potency (IC50) in C3H10T1/2 assay (alkaline phosphatase induction): 0.3 µg/mL
B7: mutant 17 (Shh C1II/A169C + N27C), NEM-modified (ligand)
chain: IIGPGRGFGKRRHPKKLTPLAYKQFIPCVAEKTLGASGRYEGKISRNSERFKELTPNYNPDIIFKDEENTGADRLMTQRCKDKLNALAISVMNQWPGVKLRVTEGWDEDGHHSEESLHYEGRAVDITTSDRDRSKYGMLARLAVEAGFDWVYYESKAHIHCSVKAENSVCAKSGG
modifications: N-ethyl maleimide on thiol of Cys27, Cys169

Potency (IC50) in C3H10T1/2 assay (alkaline phosphatase induction): 0.3 µg/mL
B8: mutant 19 (Shh C1II/A169C + Y57C), 20 K PEG (ligand)
chain: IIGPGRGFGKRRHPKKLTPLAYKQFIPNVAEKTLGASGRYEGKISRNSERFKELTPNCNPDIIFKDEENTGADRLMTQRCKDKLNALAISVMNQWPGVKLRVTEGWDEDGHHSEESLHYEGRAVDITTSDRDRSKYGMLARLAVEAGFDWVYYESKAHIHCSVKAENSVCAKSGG
modifications: 20 K PEG maleimide on thiol of Cys57, Cys169

Potency (IC50) in C3H10T1/2 assay (alkaline phosphatase induction): 0.2 µg/mL
B9: mutant 19 (Shh C1II/A169C + Y57C), unmodified (ligand)
chain: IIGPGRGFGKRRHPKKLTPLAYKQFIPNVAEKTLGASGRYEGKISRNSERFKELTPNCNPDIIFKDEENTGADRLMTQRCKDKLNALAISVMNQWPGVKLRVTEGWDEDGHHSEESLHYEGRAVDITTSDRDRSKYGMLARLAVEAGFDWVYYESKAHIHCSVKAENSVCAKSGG

Potency (IC50) in C3H10T1/2 assay (alkaline phosphatase induction): 3 µg/mL
B10: mutant 17 (Shh C1II/A169C + N27C), Pyrene-modified (ligand)
chain: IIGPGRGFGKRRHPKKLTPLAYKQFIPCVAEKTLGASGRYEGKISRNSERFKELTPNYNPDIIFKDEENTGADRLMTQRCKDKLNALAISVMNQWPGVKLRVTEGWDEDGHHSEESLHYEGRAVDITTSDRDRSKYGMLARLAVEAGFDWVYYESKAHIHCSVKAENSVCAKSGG
modifications: N-(1-pyrenyl) maleimide on thiol of Cys27, Cys169

Potency (IC50) in C3H10T1/2 assay (alkaline phosphatase induction): 0.3 µg/mL
B11: mutant 19 (Shh C1II/A169C + Y57C), Pyrene-modified (ligand)
chain: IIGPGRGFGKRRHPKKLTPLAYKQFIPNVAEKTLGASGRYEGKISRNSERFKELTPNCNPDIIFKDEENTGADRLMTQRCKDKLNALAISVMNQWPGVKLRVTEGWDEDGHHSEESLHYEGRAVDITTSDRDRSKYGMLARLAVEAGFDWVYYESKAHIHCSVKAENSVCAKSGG
modifications: N-(1-pyrenyl) maleimide on thiol of Cys57, Cys169

Potency (IC50) in C3H10T1/2 assay (alkaline phosphatase induction): 0.4 µg/mL
B12: mutant 20 (Shh C1II/A169C + N68C), 20 K PEG (ligand)
chain: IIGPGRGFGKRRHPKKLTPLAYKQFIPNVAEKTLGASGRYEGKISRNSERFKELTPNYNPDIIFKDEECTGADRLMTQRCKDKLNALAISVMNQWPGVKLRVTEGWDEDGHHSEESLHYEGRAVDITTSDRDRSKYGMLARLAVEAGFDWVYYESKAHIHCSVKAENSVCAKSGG
modifications: 20 K PEG maleimide on thiol of Cys68, Cys169

Potency (IC50) in C3H10T1/2 assay (alkaline phosphatase induction): 0.2 µg/mL
B13: mutant 19 (Shh C1II/A169C + Y57C), Napth-modified (ligand)
chain: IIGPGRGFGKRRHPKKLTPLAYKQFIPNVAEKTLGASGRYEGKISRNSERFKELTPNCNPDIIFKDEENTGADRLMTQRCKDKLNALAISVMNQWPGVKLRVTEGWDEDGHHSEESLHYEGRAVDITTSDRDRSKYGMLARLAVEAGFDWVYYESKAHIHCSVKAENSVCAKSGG
modifications: N-(1-naphthyl) maleimide on thiol of Cys57, Cys169

Potency (IC50) in C3H10T1/2 assay (alkaline phosphatase induction): 0.3 µg/mL
B14: mutant 18 (Shh C1II/A169C + N46C), 20 K PEG (ligand)
chain: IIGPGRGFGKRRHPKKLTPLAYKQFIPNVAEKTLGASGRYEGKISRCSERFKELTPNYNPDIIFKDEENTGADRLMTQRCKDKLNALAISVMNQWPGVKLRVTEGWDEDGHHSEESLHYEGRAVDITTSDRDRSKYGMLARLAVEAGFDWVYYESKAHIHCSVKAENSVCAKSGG
modifications: 20 K PEG maleimide on thiol of Cys46, Cys169

Potency (IC50) in C3H10T1/2 assay (alkaline phosphatase induction): 0.2 µg/mL
B15: mutant 18 (Shh C1II/A169C + N46C), NEM-modified (ligand)
chain: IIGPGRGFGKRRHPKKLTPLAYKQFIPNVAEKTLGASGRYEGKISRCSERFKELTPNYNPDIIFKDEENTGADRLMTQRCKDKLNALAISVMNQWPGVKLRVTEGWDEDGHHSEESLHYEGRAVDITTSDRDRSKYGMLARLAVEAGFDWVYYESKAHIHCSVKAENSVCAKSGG
modifications: N-ethyl maleimide on thiol of Cys46, Cys169

Potency (IC50) in C3H10T1/2 assay (alkaline phosphatase induction): 0.3 µg/mL
B16: mutant 20 (Shh C1II/A169C + N68C), Napth-modified (ligand)
chain: not shown
modifications: N-(1-naphthyl) maleimide on thiol of Cys68, Cys169

Potency (IC50) in C3H10T1/2 assay (alkaline phosphatase induction): 1.5 µg/mL
B17: mutant 21 (Shh C1II/A169C + N92C), unmodified (ligand)
chain: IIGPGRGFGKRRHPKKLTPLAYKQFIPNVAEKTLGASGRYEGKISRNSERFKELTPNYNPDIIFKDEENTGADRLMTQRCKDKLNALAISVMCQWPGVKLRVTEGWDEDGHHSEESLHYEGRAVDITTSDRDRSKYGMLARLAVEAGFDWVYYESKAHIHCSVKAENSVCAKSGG

Potency (IC50) in C3H10T1/2 assay (alkaline phosphatase induction): 0.2 µg/mL
B18: mutant 20 (Shh C1II/A169C + N68C), NEM-modified (ligand)
chain: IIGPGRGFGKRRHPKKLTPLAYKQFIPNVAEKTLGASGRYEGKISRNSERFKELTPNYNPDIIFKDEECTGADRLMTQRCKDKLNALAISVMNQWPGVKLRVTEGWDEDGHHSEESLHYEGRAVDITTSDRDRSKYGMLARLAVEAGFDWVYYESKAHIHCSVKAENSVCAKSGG
modifications: N-ethyl maleimide on thiol of Cys68, Cys169

Potency (IC50) in C3H10T1/2 assay (alkaline phosphatase induction): 0.2 µg/mL
B19: mutant 19 (Shh C1II/A169C + Y57C), NEM-modified (ligand)
chain: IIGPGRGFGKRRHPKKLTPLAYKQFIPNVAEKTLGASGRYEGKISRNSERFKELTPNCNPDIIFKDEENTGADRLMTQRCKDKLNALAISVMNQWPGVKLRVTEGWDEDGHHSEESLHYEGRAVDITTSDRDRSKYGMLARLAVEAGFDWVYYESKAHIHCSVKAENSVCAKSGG
modifications: N-ethyl maleimide on thiol of Cys57, Cys169

Potency (IC50) in C3H10T1/2 assay (alkaline phosphatase induction): 0.2 µg/mL
B20: mutant 20 (Shh C1II/A169C + N68C), 5 K PEG (ligand)
chain: not shown
modifications: 5 K PEG maleimide on thiol of Cys68, Cys169

Potency (IC50) in C3H10T1/2 assay (alkaline phosphatase induction): 0.3 µg/mL
B21: mutant 19 (Shh C1II/A169C + Y57C), HPE-modified (ligand)
chain: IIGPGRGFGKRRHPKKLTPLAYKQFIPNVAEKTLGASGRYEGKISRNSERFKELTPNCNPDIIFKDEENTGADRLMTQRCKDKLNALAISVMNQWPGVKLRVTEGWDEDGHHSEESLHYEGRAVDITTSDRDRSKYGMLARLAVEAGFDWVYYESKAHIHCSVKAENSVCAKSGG
modifications: beta-(4-hydroxyphenyl) ethylmaleimide on thiol of Cys57, Cys169

Potency (IC50) in C3H10T1/2 assay (alkaline phosphatase induction): 0.5 µg/mL
B22: mutant 18 (Shh C1II/A169C + N46C), Pyrene-modified (ligand)
chain: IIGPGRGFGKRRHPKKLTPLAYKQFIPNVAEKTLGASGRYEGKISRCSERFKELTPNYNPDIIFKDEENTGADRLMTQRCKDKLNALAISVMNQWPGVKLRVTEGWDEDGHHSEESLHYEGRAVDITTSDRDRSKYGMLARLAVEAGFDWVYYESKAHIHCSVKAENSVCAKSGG
modifications: N-(1-pyrenyl) maleimide on thiol of Cys46, Cys169

Potency (IC50) in C3H10T1/2 assay (alkaline phosphatase induction): 0.3 µg/mL
B23: mutant 20 (Shh C1II/A169C + N68C), unmodified (ligand)
chain: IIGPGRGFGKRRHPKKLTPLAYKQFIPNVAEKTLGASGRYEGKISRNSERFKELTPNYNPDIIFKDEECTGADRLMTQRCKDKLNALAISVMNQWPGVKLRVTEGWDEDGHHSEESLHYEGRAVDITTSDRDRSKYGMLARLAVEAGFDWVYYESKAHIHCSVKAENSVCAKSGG

Potency (IC50) in C3H10T1/2 assay (alkaline phosphatase induction): 0.5 µg/mL
B24: mutant 17 (Shh C1II/A169C + N27C), HPE-modified (ligand)
chain: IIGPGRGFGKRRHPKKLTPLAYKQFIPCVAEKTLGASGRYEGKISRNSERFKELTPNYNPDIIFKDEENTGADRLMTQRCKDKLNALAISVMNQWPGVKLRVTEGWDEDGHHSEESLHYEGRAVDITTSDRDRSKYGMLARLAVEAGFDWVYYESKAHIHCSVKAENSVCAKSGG
modifications: beta-(4-hydroxyphenyl) ethylmaleimide on thiol of Cys27, Cys169

Potency (IC50) in C3H10T1/2 assay (alkaline phosphatase induction): 0.4 µg/mL
B25: mutant 18 (Shh C1II/A169C + N46C), HPE-modified (ligand)
chain: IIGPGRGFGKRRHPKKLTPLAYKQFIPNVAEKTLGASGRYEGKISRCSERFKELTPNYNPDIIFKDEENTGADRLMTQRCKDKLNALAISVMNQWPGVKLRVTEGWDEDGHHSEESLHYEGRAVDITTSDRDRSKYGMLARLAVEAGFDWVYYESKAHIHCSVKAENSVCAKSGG
modifications: beta-(4-hydroxyphenyl) ethylmaleimide on thiol of Cys46, Cys169

Potency (IC50) in C3H10T1/2 assay (alkaline phosphatase induction): 0.2 µg/mL
B26: mutant 19 (Shh C1II/A169C + Y57C), 5 K PEG (ligand)
chain: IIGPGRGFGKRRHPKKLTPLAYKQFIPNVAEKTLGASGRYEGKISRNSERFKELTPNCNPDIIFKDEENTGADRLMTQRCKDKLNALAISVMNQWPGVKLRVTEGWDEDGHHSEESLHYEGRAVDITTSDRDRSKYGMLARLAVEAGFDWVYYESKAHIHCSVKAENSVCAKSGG
modifications: 5 K PEG maleimide on thiol of Cys57, Cys169

Potency (IC50) in C3H10T1/2 assay (alkaline phosphatase induction): 0.4 µg/mL
B27: mutant 18 (Shh C1II/A169C + N46C), Napth-modified (ligand)
chain: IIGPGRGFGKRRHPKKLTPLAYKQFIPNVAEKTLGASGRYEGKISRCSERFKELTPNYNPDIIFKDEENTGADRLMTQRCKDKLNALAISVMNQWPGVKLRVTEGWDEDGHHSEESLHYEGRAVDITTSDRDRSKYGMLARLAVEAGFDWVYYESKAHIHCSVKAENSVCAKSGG
modifications: N-(1-naphthyl) maleimide on thiol of Cys46, Cys169

Potency (IC50) in C3H10T1/2 assay (alkaline phosphatase induction): 0.3 µg/mL
B28: mutant 20 (Shh C1II/A169C + N68C), Pyrene-modified (ligand)
chain: not shown
modifications: N-(1-pyrenyl) maleimide on thiol of Cys68, Cys169

Potency (IC50) in C3H10T1/2 assay (alkaline phosphatase induction): 0.4 µg/mL
B29: mutant 17 (Shh C1II/A169C + N27C), unmodified (ligand)
chain: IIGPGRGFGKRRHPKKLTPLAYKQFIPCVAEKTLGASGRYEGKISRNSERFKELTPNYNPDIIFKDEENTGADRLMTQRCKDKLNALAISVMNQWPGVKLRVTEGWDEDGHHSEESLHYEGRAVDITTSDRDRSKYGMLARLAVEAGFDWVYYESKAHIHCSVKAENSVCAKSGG
